B1: Far upstream element-binding protein 1, residues 98 to 169; numbered along this chain, Q96AE4 (parent)
chain: RSVMTEEYKVPDGMVGFIIGRGGEQISRIQQESGCKIQIAPDSGGLPERSCMLTGTPESVQSAKRLLDQIVE

± gives the uncertainty stated by the source.

In the data set the parent is B1. In words: abundance fitness (aPCA) (normalised: wild type 0, dead -1); higher = more abundant; growth selection in yeast, the domain comes from the species named. The note with it: Homo sapiens.
As to RSVMTEEYKVPDGMVGFIIGRGGEQISRIQQESGCKIQIAPDSGGLPERSCMLTGTPESVQSAKLLLDQIVE, the abundance fitness was -0.024 ± 0.026.
The result for RSVMTEEYKVPDGMVGFIIGRGGEQISRIQQESGCKIQIAPDSGGLPERSCMLTGTPESVQSAKVLLDQIVE reads -0.002 ± 0.026; that for RSVMTEEYKVPDGMVGFIIGRGGEQISRIQQESGCKIQIAPDSGGLPERSCMLTGTPESVQSAKWLLDQIVE, -0.082 ± 0.028.
Next, RSVMTEEYKVPDGMVGFIIGRGGEQISRIQQESGCKIQIAPDSGGLPERSCMLTGTPESVQSAKSLLDQIVE: -0.034 ± 0.027.
For RSVMTEEYKVPDGMVGFIIGRGGEQISRIQQESGCKIQIAPDSGGLPERSCMLTGTPESVQSAKILLDQIVE, the abundance fitness was -0.051 ± 0.038.
The result for RSVMTEEYKVPDGMVGFIIGRGGEQISRIQQESGCKIQIAPDSGGLPERSCMLTGTPESVQSAKGLLDQIVE reads -0.027 ± 0.023.
With RSVMTEEYKVPDGMVGFIIGRGGEQISRIQQESGCKIQIAPDSGGLPERSCMLTGTPESVQSAKDLLDQIVE, the abundance fitness is -0.043 ± 0.036.
Consider RSVMTEEYKVPDGMVGFIIGRGGEQISRIQQESGCKIQIAPDSGGLPERSCMLTGTPESVQSAKELLDQIVE, for which the abundance fitness is -0.015 ± 0.031.
The result for RSVMTEEYKVPDGMVGFIIGRGGEQISRIQQESGCKIQIAPDSGGLPERSCMLTGTPESVQSAKYLLDQIVE reads -0.053 ± 0.039.
The result for RSVMTEEYKVPDGMVGFIIGRGGEQISRIQQESGCKIQIAPDSGGLPERSCMLTGTPESVQSAKHLLDQIVE reads -0.025 ± 0.036; that for RSVMTEEYKVPDGMVGFIIGRGGEQISRIQQESGCKIQIAPDSGGLPERSCMLTGTPESVQSAKKLLDQIVE, -0.006 ± 0.034.
The result for RSVMTEEYKVPDGMVGFIIGRGGEQISRIQQESGCKIQIAPDSGGLPERSCMLTGTPESVQSAKFLLDQIVE reads 0.017 ± 0.039; that for RSVMTEEYKVPDGMVGFIIGRGGEQISRIQQESGCKIQIAPDSGGLPERSCMLTGTPESVQSAKQLLDQIVE, -0.02 ± 0.031.
Turning to RSVMTEEYKVPDGMVGFIIGRGGEQISRIQQESGCKIQIAPDSGGLPERSCMLTGTPESVQSAKTLLDQIVE, the abundance fitness was -0.019 ± 0.032.
The result for RSVMTEEYKVPDGMVGFIIGRGGEQISRIQQESGCKIQIAPDSGGLPERSCMLTGTPESVQSAKNLLDQIVE reads -0.008 ± 0.039; that for RSVMTEEYKVPDGMVGFIIGRGGEQISRIQQESGCKIQIAPDSGGLPERSCMLTGTPESVQSAKCLLDQIVE, -0.029 ± 0.036; that for RSVMTEEYKVPDGMVGFIIGRGGEQISRIQQESGCKIQIAPDSGGLPERSCMLTGTPESVQSAKPLLDQIVE, -0.464 ± 0.034.
Next, RSVMTEEYKVPDGMVGFIIGRGGEQISRIQQESGCKIQIAPDSGGLPERSCMLTGTPESVQSGKRLLDQIVE: -0.069 ± 0.023; RSVMTEEYKVPDGMVGFIIGRGGEQISRIQQESGCKIQIAPDSGGLPERSCMLTGTPESVQSDKRLLDQIVE: -0.633 ± 0.05; RSVMTEEYKVPDGMVGFIIGRGGEQISRIQQESGCKIQIAPDSGGLPERSCMLTGTPESVQSEKRLLDQIVE: -0.815 ± 0.047.
Regarding RSVMTEEYKVPDGMVGFIIGRGGEQISRIQQESGCKIQIAPDSGGLPERSCMLTGTPESVQSIKRLLDQIVE, the abundance fitness is -0.328 ± 0.043.
The result for RSVMTEEYKVPDGMVGFIIGRGGEQISRIQQESGCKIQIAPDSGGLPERSCMLTGTPESVQSPKRLLDQIVE reads -0.805 ± 0.046.
RSVMTEEYKVPDGMVGFIIGRGGEQISRIQQESGCKIQIAPDSGGLPERSCMLTGTPESVQSYKRLLDQIVE: the abundance fitness was -1.05 ± 0.11.
The result for RSVMTEEYKVPDGMVGFIIGRGGEQISRIQQESGCKIQIAPDSGGLPERSCMLTGTPESVQSVKRLLDQIVE reads -0.246 ± 0.027; that for RSVMTEEYKVPDGMVGFIIGRGGEQISRIQQESGCKIQIAPDSGGLPERSCMLTGTPESVQSCKRLLDQIVE, 0.024 ± 0.036; that for RSVMTEEYKVPDGMVGFIIGRGGEQISRIQQESGCKIQIAPDSGGLPERSCMLTGTPESVQSKKRLLDQIVE, -1.04 ± 0.069.
Next, RSVMTEEYKVPDGMVGFIIGRGGEQISRIQQESGCKIQIAPDSGGLPERSCMLTGTPESVQSLKRLLDQIVE: -0.41 ± 0.028; RSVMTEEYKVPDGMVGFIIGRGGEQISRIQQESGCKIQIAPDSGGLPERSCMLTGTPESVQSHKRLLDQIVE: -1.09 ± 0.089.
The result for RSVMTEEYKVPDGMVGFIIGRGGEQISRIQQESGCKIQIAPDSGGLPERSCMLTGTPESVQSFKRLLDQIVE reads -0.941 ± 0.093; that for RSVMTEEYKVPDGMVGFIIGRGGEQISRIQQESGCKIQIAPDSGGLPERSCMLTGTPESVQSWKRLLDQIVE, -1.31 ± 0.079; that for RSVMTEEYKVPDGMVGFIIGRGGEQISRIQQESGCKIQIAPDSGGLPERSCMLTGTPESVQSNKRLLDQIVE, -0.91 ± 0.078.
Regarding RSVMTEEYKVPDGMVGFIIGRGGEQISRIQQESGCKIQIAPDSGGLPERSCMLTGTPESVQSSKRLLDQIVE, the abundance fitness is -0.261 ± 0.029.
As to RSVMTEEYKVPDGMVGFIIGRGGEQISRIQQESGCKIQIAPDSGGLPERSCMLTGTPESVQSTKRLLDQIVE, the abundance fitness is -0.303 ± 0.032.
Next, RSVMTEEYKVPDGMVGFIIGRGGEQISRIQQESGCKIQIAPDSGGLPERSCMLTGTPESVQSAVRLLDQIVE: -0.09 ± 0.026; RSVMTEEYKVPDGMVGFIIGRGGEQISRIQQESGCKIQIAPDSGGLPERSCMLTGTPESVQSARRLLDQIVE: -0.015 ± 0.023; RSVMTEEYKVPDGMVGFIIGRGGEQISRIQQESGCKIQIAPDSGGLPERSCMLTGTPESVQSAGRLLDQIVE: -0.179 ± 0.025.
The result for RSVMTEEYKVPDGMVGFIIGRGGEQISRIQQESGCKIQIAPDSGGLPERSCMLTGTPESVQSALRLLDQIVE reads -0.231 ± 0.026.

For the origin of these results see the Human Domainome abundance scans (Beltran et al. 2025).
